According to patent publication US20210388087A1 (Chugai, published 2021):

Biological target: T1, Human CD137 ECD (human)
T1 construct: also called 4-1BB
Assay: single mutant vs template dBBDu183H

T1 sequence (chain, as listed by the source limits assumed): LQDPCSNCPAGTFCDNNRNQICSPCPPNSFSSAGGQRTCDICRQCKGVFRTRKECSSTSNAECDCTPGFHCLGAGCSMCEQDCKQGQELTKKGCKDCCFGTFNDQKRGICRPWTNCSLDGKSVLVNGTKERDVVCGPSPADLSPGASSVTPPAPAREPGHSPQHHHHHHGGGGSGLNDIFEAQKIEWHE

fold change of affinity [fold] | Binder
0.7 | H183/L072 VH A56S (antibody, name in Kabat numbering, V domains shown) VH: QVQLVESGGGLVQPGRSLRLSCAASGFTFSNAWMHWVRQAPGKGLEWVAQIKDKGNAYSAYYAPSVKGRFTISRDDSKNSIYLQMNSLKTEDTAVYYCHYVHYASASTVLPAFGVDAWGQGTTVTVSS VL: DIVMTQSPLSLPVTPGEPASISCQASQELVHMNRNTYLHWYQQKPGQAPRLLIYKVSNRFPGVPDRFSGSGSGTDFTLKISRVEAEDVGVYYCAQGTSVPFTFGQGTKLEIK
0.4 | H183/L072 VH A56T (antibody, name in Kabat numbering, V domains shown) VH: QVQLVESGGGLVQPGRSLRLSCAASGFTFSNAWMHWVRQAPGKGLEWVAQIKDKGNAYTAYYAPSVKGRFTISRDDSKNSIYLQMNSLKTEDTAVYYCHYVHYASASTVLPAFGVDAWGQGTTVTVSS VL: DIVMTQSPLSLPVTPGEPASISCQASQELVHMNRNTYLHWYQQKPGQAPRLLIYKVSNRFPGVPDRFSGSGSGTDFTLKISRVEAEDVGVYYCAQGTSVPFTFGQGTKLEIK
0.6 | H183/L072 VH A57T (antibody, name in Kabat numbering, V domains shown) VH: QVQLVESGGGLVQPGRSLRLSCAASGFTFSNAWMHWVRQAPGKGLEWVAQIKDKGNAYATYYAPSVKGRFTISRDDSKNSIYLQMNSLKTEDTAVYYCHYVHYASASTVLPAFGVDAWGQGTTVTVSS VL: DIVMTQSPLSLPVTPGEPASISCQASQELVHMNRNTYLHWYQQKPGQAPRLLIYKVSNRFPGVPDRFSGSGSGTDFTLKISRVEAEDVGVYYCAQGTSVPFTFGQGTKLEIK
0.2 | H183/L072 VH A56V (antibody, name in Kabat numbering, V domains shown) VH: QVQLVESGGGLVQPGRSLRLSCAASGFTFSNAWMHWVRQAPGKGLEWVAQIKDKGNAYVAYYAPSVKGRFTISRDDSKNSIYLQMNSLKTEDTAVYYCHYVHYASASTVLPAFGVDAWGQGTTVTVSS VL: DIVMTQSPLSLPVTPGEPASISCQASQELVHMNRNTYLHWYQQKPGQAPRLLIYKVSNRFPGVPDRFSGSGSGTDFTLKISRVEAEDVGVYYCAQGTSVPFTFGQGTKLEIK
0.9 | H183/L072 VH A57E (antibody, name in Kabat numbering, V domains shown) VH: QVQLVESGGGLVQPGRSLRLSCAASGFTFSNAWMHWVRQAPGKGLEWVAQIKDKGNAYAEYYAPSVKGRFTISRDDSKNSIYLQMNSLKTEDTAVYYCHYVHYASASTVLPAFGVDAWGQGTTVTVSS VL: DIVMTQSPLSLPVTPGEPASISCQASQELVHMNRNTYLHWYQQKPGQAPRLLIYKVSNRFPGVPDRFSGSGSGTDFTLKISRVEAEDVGVYYCAQGTSVPFTFGQGTKLEIK
0.8 | H183/L072 VH A57S (antibody, name in Kabat numbering, V domains shown) VH: QVQLVESGGGLVQPGRSLRLSCAASGFTFSNAWMHWVRQAPGKGLEWVAQIKDKGNAYASYYAPSVKGRFTISRDDSKNSIYLQMNSLKTEDTAVYYCHYVHYASASTVLPAFGVDAWGQGTTVTVSS VL: DIVMTQSPLSLPVTPGEPASISCQASQELVHMNRNTYLHWYQQKPGQAPRLLIYKVSNRFPGVPDRFSGSGSGTDFTLKISRVEAEDVGVYYCAQGTSVPFTFGQGTKLEIK
0.3 | H183/L072 VH A57N (antibody, name in Kabat numbering, V domains shown) VH: QVQLVESGGGLVQPGRSLRLSCAASGFTFSNAWMHWVRQAPGKGLEWVAQIKDKGNAYANYYAPSVKGRFTISRDDSKNSIYLQMNSLKTEDTAVYYCHYVHYASASTVLPAFGVDAWGQGTTVTVSS VL: DIVMTQSPLSLPVTPGEPASISCQASQELVHMNRNTYLHWYQQKPGQAPRLLIYKVSNRFPGVPDRFSGSGSGTDFTLKISRVEAEDVGVYYCAQGTSVPFTFGQGTKLEIK
0.1 | H183/L072 VH A57F (antibody, name in Kabat numbering, V domains shown) VH: QVQLVESGGGLVQPGRSLRLSCAASGFTFSNAWMHWVRQAPGKGLEWVAQIKDKGNAYAFYYAPSVKGRFTISRDDSKNSIYLQMNSLKTEDTAVYYCHYVHYASASTVLPAFGVDAWGQGTTVTVSS VL: DIVMTQSPLSLPVTPGEPASISCQASQELVHMNRNTYLHWYQQKPGQAPRLLIYKVSNRFPGVPDRFSGSGSGTDFTLKISRVEAEDVGVYYCAQGTSVPFTFGQGTKLEIK
0.5 | H183/L072 VH A57R (antibody, name in Kabat numbering, V domains shown) VH: QVQLVESGGGLVQPGRSLRLSCAASGFTFSNAWMHWVRQAPGKGLEWVAQIKDKGNAYARYYAPSVKGRFTISRDDSKNSIYLQMNSLKTEDTAVYYCHYVHYASASTVLPAFGVDAWGQGTTVTVSS VL: DIVMTQSPLSLPVTPGEPASISCQASQELVHMNRNTYLHWYQQKPGQAPRLLIYKVSNRFPGVPDRFSGSGSGTDFTLKISRVEAEDVGVYYCAQGTSVPFTFGQGTKLEIK
0.1 | H183/L072 VH A57I (antibody, name in Kabat numbering, V domains shown) VH: QVQLVESGGGLVQPGRSLRLSCAASGFTFSNAWMHWVRQAPGKGLEWVAQIKDKGNAYAIYYAPSVKGRFTISRDDSKNSIYLQMNSLKTEDTAVYYCHYVHYASASTVLPAFGVDAWGQGTTVTVSS VL: DIVMTQSPLSLPVTPGEPASISCQASQELVHMNRNTYLHWYQQKPGQAPRLLIYKVSNRFPGVPDRFSGSGSGTDFTLKISRVEAEDVGVYYCAQGTSVPFTFGQGTKLEIK
0.5 | H183/L072 VH A57V (antibody, name in Kabat numbering, V domains shown) VH: QVQLVESGGGLVQPGRSLRLSCAASGFTFSNAWMHWVRQAPGKGLEWVAQIKDKGNAYAVYYAPSVKGRFTISRDDSKNSIYLQMNSLKTEDTAVYYCHYVHYASASTVLPAFGVDAWGQGTTVTVSS VL: DIVMTQSPLSLPVTPGEPASISCQASQELVHMNRNTYLHWYQQKPGQAPRLLIYKVSNRFPGVPDRFSGSGSGTDFTLKISRVEAEDVGVYYCAQGTSVPFTFGQGTKLEIK
0.5 | H183/L072 VH A57H (antibody, name in Kabat numbering, V domains shown) VH: QVQLVESGGGLVQPGRSLRLSCAASGFTFSNAWMHWVRQAPGKGLEWVAQIKDKGNAYAHYYAPSVKGRFTISRDDSKNSIYLQMNSLKTEDTAVYYCHYVHYASASTVLPAFGVDAWGQGTTVTVSS VL: DIVMTQSPLSLPVTPGEPASISCQASQELVHMNRNTYLHWYQQKPGQAPRLLIYKVSNRFPGVPDRFSGSGSGTDFTLKISRVEAEDVGVYYCAQGTSVPFTFGQGTKLEIK
0 | H183/L072 VH A57Y (antibody, name in Kabat numbering, V domains shown) VH: QVQLVESGGGLVQPGRSLRLSCAASGFTFSNAWMHWVRQAPGKGLEWVAQIKDKGNAYAYYYAPSVKGRFTISRDDSKNSIYLQMNSLKTEDTAVYYCHYVHYASASTVLPAFGVDAWGQGTTVTVSS VL: DIVMTQSPLSLPVTPGEPASISCQASQELVHMNRNTYLHWYQQKPGQAPRLLIYKVSNRFPGVPDRFSGSGSGTDFTLKISRVEAEDVGVYYCAQGTSVPFTFGQGTKLEIK
1 | H183/L072 VH A57P (antibody, name in Kabat numbering, V domains shown) VH: QVQLVESGGGLVQPGRSLRLSCAASGFTFSNAWMHWVRQAPGKGLEWVAQIKDKGNAYAPYYAPSVKGRFTISRDDSKNSIYLQMNSLKTEDTAVYYCHYVHYASASTVLPAFGVDAWGQGTTVTVSS VL: DIVMTQSPLSLPVTPGEPASISCQASQELVHMNRNTYLHWYQQKPGQAPRLLIYKVSNRFPGVPDRFSGSGSGTDFTLKISRVEAEDVGVYYCAQGTSVPFTFGQGTKLEIK
0.9 | H183/L072 VH A57K (antibody, name in Kabat numbering, V domains shown) VH: QVQLVESGGGLVQPGRSLRLSCAASGFTFSNAWMHWVRQAPGKGLEWVAQIKDKGNAYAKYYAPSVKGRFTISRDDSKNSIYLQMNSLKTEDTAVYYCHYVHYASASTVLPAFGVDAWGQGTTVTVSS VL: DIVMTQSPLSLPVTPGEPASISCQASQELVHMNRNTYLHWYQQKPGQAPRLLIYKVSNRFPGVPDRFSGSGSGTDFTLKISRVEAEDVGVYYCAQGTSVPFTFGQGTKLEIK
1.2 | H183/L072 VH A57D (antibody, name in Kabat numbering, V domains shown) VH: QVQLVESGGGLVQPGRSLRLSCAASGFTFSNAWMHWVRQAPGKGLEWVAQIKDKGNAYADYYAPSVKGRFTISRDDSKNSIYLQMNSLKTEDTAVYYCHYVHYASASTVLPAFGVDAWGQGTTVTVSS VL: DIVMTQSPLSLPVTPGEPASISCQASQELVHMNRNTYLHWYQQKPGQAPRLLIYKVSNRFPGVPDRFSGSGSGTDFTLKISRVEAEDVGVYYCAQGTSVPFTFGQGTKLEIK
0.9 | H183/L072 VH A57Q (antibody, name in Kabat numbering, V domains shown) VH: QVQLVESGGGLVQPGRSLRLSCAASGFTFSNAWMHWVRQAPGKGLEWVAQIKDKGNAYAQYYAPSVKGRFTISRDDSKNSIYLQMNSLKTEDTAVYYCHYVHYASASTVLPAFGVDAWGQGTTVTVSS VL: DIVMTQSPLSLPVTPGEPASISCQASQELVHMNRNTYLHWYQQKPGQAPRLLIYKVSNRFPGVPDRFSGSGSGTDFTLKISRVEAEDVGVYYCAQGTSVPFTFGQGTKLEIK
0.7 | H183/L072 VH A57M (antibody, name in Kabat numbering, V domains shown) VH: QVQLVESGGGLVQPGRSLRLSCAASGFTFSNAWMHWVRQAPGKGLEWVAQIKDKGNAYAMYYAPSVKGRFTISRDDSKNSIYLQMNSLKTEDTAVYYCHYVHYASASTVLPAFGVDAWGQGTTVTVSS VL: DIVMTQSPLSLPVTPGEPASISCQASQELVHMNRNTYLHWYQQKPGQAPRLLIYKVSNRFPGVPDRFSGSGSGTDFTLKISRVEAEDVGVYYCAQGTSVPFTFGQGTKLEIK
0.3 | H183/L072 VH A56W (antibody, name in Kabat numbering, V domains shown) VH: QVQLVESGGGLVQPGRSLRLSCAASGFTFSNAWMHWVRQAPGKGLEWVAQIKDKGNAYWAYYAPSVKGRFTISRDDSKNSIYLQMNSLKTEDTAVYYCHYVHYASASTVLPAFGVDAWGQGTTVTVSS VL: DIVMTQSPLSLPVTPGEPASISCQASQELVHMNRNTYLHWYQQKPGQAPRLLIYKVSNRFPGVPDRFSGSGSGTDFTLKISRVEAEDVGVYYCAQGTSVPFTFGQGTKLEIK
0.9 | H183/L072 VH A57G (antibody, name in Kabat numbering, V domains shown) VH: QVQLVESGGGLVQPGRSLRLSCAASGFTFSNAWMHWVRQAPGKGLEWVAQIKDKGNAYAGYYAPSVKGRFTISRDDSKNSIYLQMNSLKTEDTAVYYCHYVHYASASTVLPAFGVDAWGQGTTVTVSS VL: DIVMTQSPLSLPVTPGEPASISCQASQELVHMNRNTYLHWYQQKPGQAPRLLIYKVSNRFPGVPDRFSGSGSGTDFTLKISRVEAEDVGVYYCAQGTSVPFTFGQGTKLEIK
0.3 | H183/L072 VH A56Y (antibody, name in Kabat numbering, V domains shown) VH: QVQLVESGGGLVQPGRSLRLSCAASGFTFSNAWMHWVRQAPGKGLEWVAQIKDKGNAYYAYYAPSVKGRFTISRDDSKNSIYLQMNSLKTEDTAVYYCHYVHYASASTVLPAFGVDAWGQGTTVTVSS VL: DIVMTQSPLSLPVTPGEPASISCQASQELVHMNRNTYLHWYQQKPGQAPRLLIYKVSNRFPGVPDRFSGSGSGTDFTLKISRVEAEDVGVYYCAQGTSVPFTFGQGTKLEIK
